Laboratory results published in patent US20210292414A1 (H LUNDBECK A S, published 2021).
Residue numbers refer to the chain shown, from its start.

T1: hRim
T1 chimeric human/tetraodon Sortilin extracellular region, BAP tag: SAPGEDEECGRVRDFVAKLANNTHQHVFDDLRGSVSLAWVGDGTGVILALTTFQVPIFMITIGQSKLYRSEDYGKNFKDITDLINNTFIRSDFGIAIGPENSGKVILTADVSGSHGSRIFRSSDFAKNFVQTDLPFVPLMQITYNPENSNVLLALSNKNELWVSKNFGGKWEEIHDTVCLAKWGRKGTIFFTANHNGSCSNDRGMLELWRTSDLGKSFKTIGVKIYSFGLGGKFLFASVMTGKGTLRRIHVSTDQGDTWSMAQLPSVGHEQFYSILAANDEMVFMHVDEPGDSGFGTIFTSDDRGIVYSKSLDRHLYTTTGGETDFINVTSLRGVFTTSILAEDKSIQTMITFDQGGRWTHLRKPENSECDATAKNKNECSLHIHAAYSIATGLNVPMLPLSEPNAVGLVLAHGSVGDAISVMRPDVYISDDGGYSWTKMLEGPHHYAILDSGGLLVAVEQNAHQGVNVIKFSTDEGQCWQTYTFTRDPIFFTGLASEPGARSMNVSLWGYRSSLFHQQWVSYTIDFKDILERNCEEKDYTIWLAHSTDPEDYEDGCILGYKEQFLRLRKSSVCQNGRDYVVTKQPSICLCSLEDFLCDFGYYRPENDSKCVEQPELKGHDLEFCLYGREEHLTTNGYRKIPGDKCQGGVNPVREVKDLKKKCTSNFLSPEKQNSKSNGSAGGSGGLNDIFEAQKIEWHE

T2: Sortilin SORTECDBAP_hB01-05 (human/tetraodon chimera)
T2 construct: Shuffle construct: chimeric human/tetraodon Sortilin ECD with BAP tag
T2 chain: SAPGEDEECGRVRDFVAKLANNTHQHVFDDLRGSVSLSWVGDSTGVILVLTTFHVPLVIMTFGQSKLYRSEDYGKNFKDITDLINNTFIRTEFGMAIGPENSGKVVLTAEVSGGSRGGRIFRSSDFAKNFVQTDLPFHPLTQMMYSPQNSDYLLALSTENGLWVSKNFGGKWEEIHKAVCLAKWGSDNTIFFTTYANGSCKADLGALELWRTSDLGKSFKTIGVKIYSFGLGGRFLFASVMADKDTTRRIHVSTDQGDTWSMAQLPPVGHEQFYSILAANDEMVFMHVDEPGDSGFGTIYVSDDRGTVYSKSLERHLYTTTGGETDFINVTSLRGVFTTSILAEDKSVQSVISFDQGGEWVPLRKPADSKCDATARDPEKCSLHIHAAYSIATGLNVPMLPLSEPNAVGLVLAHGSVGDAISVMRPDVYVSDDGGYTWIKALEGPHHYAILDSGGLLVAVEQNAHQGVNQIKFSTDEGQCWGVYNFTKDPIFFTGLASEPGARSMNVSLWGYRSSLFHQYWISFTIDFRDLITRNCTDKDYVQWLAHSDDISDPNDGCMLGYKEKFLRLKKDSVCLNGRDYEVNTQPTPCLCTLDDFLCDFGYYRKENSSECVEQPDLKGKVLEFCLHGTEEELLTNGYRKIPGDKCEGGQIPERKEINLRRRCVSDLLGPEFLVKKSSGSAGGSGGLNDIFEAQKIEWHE

T3: Sortilin SORTECDBAP_hB45678 (human/tetraodon chimera)
T3 construct: Shuffle construct: chimeric human/tetraodon Sortilin ECD with BAP tag
T3 chain: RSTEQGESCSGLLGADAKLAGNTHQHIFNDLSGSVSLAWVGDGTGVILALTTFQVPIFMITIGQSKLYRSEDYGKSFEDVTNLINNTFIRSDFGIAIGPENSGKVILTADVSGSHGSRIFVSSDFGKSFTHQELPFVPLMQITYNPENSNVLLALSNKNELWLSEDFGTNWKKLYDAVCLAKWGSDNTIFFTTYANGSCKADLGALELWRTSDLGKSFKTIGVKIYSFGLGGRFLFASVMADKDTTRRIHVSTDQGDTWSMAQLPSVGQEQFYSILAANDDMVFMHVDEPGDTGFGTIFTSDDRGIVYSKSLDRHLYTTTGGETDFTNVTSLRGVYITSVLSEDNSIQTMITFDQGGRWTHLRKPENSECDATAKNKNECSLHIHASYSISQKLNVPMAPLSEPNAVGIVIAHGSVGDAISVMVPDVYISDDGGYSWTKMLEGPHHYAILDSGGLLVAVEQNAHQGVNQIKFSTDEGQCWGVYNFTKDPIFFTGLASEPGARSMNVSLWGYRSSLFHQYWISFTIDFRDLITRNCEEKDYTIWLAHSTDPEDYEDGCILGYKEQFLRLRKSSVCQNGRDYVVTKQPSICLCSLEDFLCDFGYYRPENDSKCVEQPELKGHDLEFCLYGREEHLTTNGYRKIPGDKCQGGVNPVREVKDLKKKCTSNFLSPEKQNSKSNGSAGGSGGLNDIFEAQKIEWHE

T4: hBack
T4 chimeric human/tetraodon Sortilin extracellular region, BAP tag: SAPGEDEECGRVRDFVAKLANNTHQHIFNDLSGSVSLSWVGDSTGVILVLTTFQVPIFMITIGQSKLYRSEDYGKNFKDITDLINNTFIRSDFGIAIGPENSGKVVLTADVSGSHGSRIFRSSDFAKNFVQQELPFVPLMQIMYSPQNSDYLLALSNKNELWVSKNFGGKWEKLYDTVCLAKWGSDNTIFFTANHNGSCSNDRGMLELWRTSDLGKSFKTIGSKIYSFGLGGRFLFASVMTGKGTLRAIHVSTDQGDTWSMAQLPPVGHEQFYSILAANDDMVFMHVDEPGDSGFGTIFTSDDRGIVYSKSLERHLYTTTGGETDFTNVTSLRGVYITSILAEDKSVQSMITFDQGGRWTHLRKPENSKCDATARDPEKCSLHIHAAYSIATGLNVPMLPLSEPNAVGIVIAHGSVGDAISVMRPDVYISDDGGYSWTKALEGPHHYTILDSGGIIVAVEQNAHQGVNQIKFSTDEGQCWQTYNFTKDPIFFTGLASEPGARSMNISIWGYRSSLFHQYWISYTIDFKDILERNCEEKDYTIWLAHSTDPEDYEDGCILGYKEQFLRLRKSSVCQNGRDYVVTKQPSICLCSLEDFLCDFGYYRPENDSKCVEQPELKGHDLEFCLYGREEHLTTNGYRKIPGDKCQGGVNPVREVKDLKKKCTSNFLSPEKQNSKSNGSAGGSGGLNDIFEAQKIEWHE

B1: Antibody 6003-1277 (antibody, V domains shown)
VH: QVQLVQSGAEVKKPGASVKVSCKTSGYTFTHYGISWVRQAPGQGLEWMGWINTYNGNTKYAQKLQGRVTMTTDTSTSTAYMELRSLRSDDTAVYYCASLGRNFDYWGQGTLVTVSS
VL: not shown
B2: Antibody 6003-030 (antibody, human IgG1, V domains shown)
VH: EVQVLESGGGLVQPGGSLRLSCAASGFTFSSYAMSWVRQAPGKGLEWVSTISGRGGNTYYADSVKGRFTISRDNSKNTLYLQMDSLRAEDTAVYYCAIIPSLYWYFDLWGRGTLVTVSS
VL: EIVLTQSPATLSLSPGERATLSCRASQSVSSYLAWYQQKPGQAPRLLIYDASNRATGIPARFSGSGSGTDFTLTISSLEPEDFAVYYCQQRSNWPLTFGGGTKVEIK
notes: Human antibody (HuMab); also called antibody 30; mAb30
B3: Antibody 6003-056 (antibody, human IgG1, V domains shown)
VH: B2 VH with A23V, S35H, T50A, N57S, D84N
VL: B2 VL with Y32F
B4: Antibody 6003-083 (antibody, human IgG1, V domains shown)
VH: B2 VH with V4L, N57S, D84N, I99V, P100A, S101T, L102M
VL: B2 VL with L96I, G100Q, K103R, V104L
B5: Antibody 6003-028 (antibody, human IgG1, V domains shown)
VH: B2 VH with V4L, N57S, D84N, I98N, I99L, P100Y, L102N
VL: B2 VL with Y32F
B6: Antibody 6003-1286 (antibody, human IgG1, V domains shown)
VH: B2 VH with V4L, D84N, T91A, I98N, P100Y, L102H
VL: B2 VL with S30N
B7: IgG1-6003-408 (antibody, V domains shown)
VH: EVQLVESGGGLVKPGGSLRLSCAASGFTFSSYSMNWVRQAPGKGLEWVSSISSSSSYIYYADSVKGRFTISRDNAKNSLYLQMNSLRAEDTAVYYCARRRIAAAGTGYGAFDIWGQGTMVTVSS
VL: ARQLTQSPSSLSASVGDRVTITCRASQGITSALAWYQQKPGKVPKLLIYDASSLESGVPSRFSGSGSGTDFTLTISSLQPEDFATYYCQQFNGYPMFSFGQGTKLEII
notes: also called Antibody 6003-408
B8: Antibody 6003-381 (antibody, human IgG1, V domains shown)
VH: QVQLVESGGGVVQPGRSLRLSCAASGFTFSNYVMHWVRQAPGKGLEWVAAISYNGNNKYYADSVKGRFTISRDNSKNTLYLQMNSLRAEDTAVSYCAKGLNDAFDIWGQGTMVTVSS
VL: not shown

Molecular target: T1, hRim
Experiment: BLI (Octet384RED)

EC50 [ng/mL] | Binder
4.34 | B1
0.86 | B2
1.24 | B3
0.99 | B4
2.04 | B5
1.05 | B6
2.78 | B7
2.28 | B8

Molecular target: T2, Sortilin SORTECDBAP_hB01-05
Experiment: BLI (Octet384RED)

binding result | Binder
no binding | B1
no binding | B2
no binding | B3
no binding | B4
no binding | B5
no binding | B6
no binding | B7
no binding | B8

Molecular target: T3, Sortilin SORTECDBAP_hB45678
Experiment: BLI (Octet384RED)

EC50 [ng/mL] | Binder
4.3 | B1
0.85 | B2
1.1 | B3
0.92 | B4
1.96 | B5
1.02 | B6
2.58 | B7
2 | B8

Molecular target: T4, hBack
Experiment: BLI (Octet384RED)

EC50 [ng/mL] | Binder
4.07 | B1
0.85 | B2
1.14 | B3
1.34 | B4
1.87 | B5
1.02 | B6
2.37 | B7
1.6 | B8
